In patent publication US20140179700A1:

Legend:
[1] = test system: myelin basic protein (MBP) (Millipore)
[2] = target: myelin basic protein (MBP) (Millipore); assay: cell-based or functional assay

MBP phosphorylation by ERK1/2 from epinephrine-treated SS RBCs compared to ERK1/2 from sham-treated cells (fold) [2] [fold] | Substance | phosphorylation of MBP by immunoprecipitated ERK1/2 (anti-phosphoMBP immunoblot) [1]
– | ERK1/2 immunoprecipitated from SS RBCs | ERK1/2 immunoprecipitated from sham-treated SS RBCs was capable of phosphorylating MBP to some extent
2.1 | ERK1/2 immunoprecipitated from SS RBCs (enzyme) | –
